In publication doi:10.1101/2022.02.02.478753:

Target: holoTvFDPF3, highly active Class F flavodiiron protein 3 from Trichomonas vaginalis (TVAG_121610) (Trichomonas vaginalis)
Experiment: cryo-EM structure

## holoTvFDPF3, highly active Class F flavodiiron protein 3 from Trichomonas vaginalis (TVAG_121610) (enzyme)
  stoichiometry N: 2
